From patent publication WO2008121160A2 (dated 2008)

Target: T1, CD5-His-GST (human, UniProt P06127 25-372)
T1 construct: Expressed in 293T cells, purified by nickel chromatography; also called Recombinant CD5; Tagged CD5 antigen; not shown: C-terminal Factor Xa site; 6X His tag; GST protein
T1 sequence: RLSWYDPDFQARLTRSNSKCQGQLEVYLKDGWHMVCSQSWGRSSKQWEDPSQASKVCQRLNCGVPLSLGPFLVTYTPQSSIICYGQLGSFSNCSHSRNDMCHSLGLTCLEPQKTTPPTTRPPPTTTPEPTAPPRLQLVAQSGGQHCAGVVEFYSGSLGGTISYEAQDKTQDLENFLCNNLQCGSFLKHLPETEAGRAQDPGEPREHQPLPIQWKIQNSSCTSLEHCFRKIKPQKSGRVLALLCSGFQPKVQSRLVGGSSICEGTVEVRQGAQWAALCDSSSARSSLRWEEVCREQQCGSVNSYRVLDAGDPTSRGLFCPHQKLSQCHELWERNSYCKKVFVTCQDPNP
Assay: Biacore (SPR), global Langmuir fits

Kd: ~1.5 nM
B1: 5D7_H0L0_IgG1_WT (antibody, V domains shown)
VH: QVTLKESGPGILKPSQTLSLTCSFSGFSLSTSGMGVGWIRQPSGKGLEWLAHIWWDDDVYYNPSLKNQLTISKDASRDQVFLKITNLDTADTATYYCVRRRATGTGFDYWGQGTTLTVSS
VL: NIVMTQSHKFMSTSVGDRVSIACKASQDVGTAVAWYQQKPGQSPKLLIYWTSTRHTGVPDRFTGSGSGTDFTLTITNVQSEDLADYFCHQYNSYNTFGSGTRLELKR
notes: also called chimeric 5D7; H0L0 5D7
